Consider five sequences from the supplement of paper PMC5998384.

The subject of data set [1] is HeLa Kyoto. In words: solubility in G1/S (NP-40 vs SDS abundance) (log2 ratio); higher = more soluble. The note with it: cell cycle stage: G1/S.
In data set [2] the test system is HeLa Kyoto. In words: melting temperature (median over replicates), in situ; higher = more thermally stable.
In data set [3] the test system is HeLa Kyoto. In words: thermal stability score vs G1/S (z-score of summed log2 fold changes over temperatures); higher = more thermally stable than in G1/S.
Data set [4] relates to HeLa Kyoto. Put plainly: solubility change mitosis vs G1/S (difference of NP-40 vs SDS log2 ratios) (log2 ratio difference); higher = more soluble in mitosis.
The mark [5] stands for this setting: cell cycle stage: early G1 (4.5 h after nocodazole release).
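Throughout, for melting temperature (median over replicates), in situ: HeLa Kyoto cells synchronized by double thymidine or nocodazole block, proteins quantified by TMT10plex mass spectrometry, three independent biological replicates.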
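Throughout, for solubility change mitosis vs G1/S (difference of NP-40 vs SDS log2 ratios): synchronized HeLa Kyoto cells (double thymidine block for G1/S, nocodazole release for mitosis), protein amounts in NP-40 versus SDS lysates quantified by mass spectrometry, three biological replicates.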
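Throughout, for solubility in G1/S (NP-40 vs SDS abundance): HeLa Kyoto cells arrested at G1/S by double thymidine block, proteins quantified by TMT10plex mass spectrometry in mild NP-40 versus SDS extracts, three biological replicates.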
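Throughout, for thermal stability score vs G1/S (z-score of summed log2 fold changes over temperatures): synchronized HeLa Kyoto cells, proteins quantified by TMT10plex mass spectrometry, three biological replicates, mitosis taken 0.5 h after nocodazole release, G1/S directly after double thymidine block.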

Consider “MGKKSRVKTQKSGTGATATVSPKEILNLTSELLQKCSSPAPGPGKEWEEYVQIRTLVEKIRKKQKGLSVTFDGKREDYFPDLMKWASENGASVEGFEMVNFKEEGFGLRATRDIKAEELFLWVPRKLLMTVESAKNSVLGPLYSQDRILQAMGNIALAFHLLCERASPNSFWQPYIQTLPSEYDTPLYFEEDEVRYLQSTQAIHDVFSQYKNTARQYAYFYKVIQTHPHANKLPLKDSFTYEDYRWAVSSVMTRQNQIPTEDGSRVTLALIPLWDMCNHTNGLITTGYNLEDDRCECVALQDFRAGEQIYIFYGTRSNAEFVIHSGFFFDNNSHDRVKIKLGVSKSDRLYAMKAEVLARAGIPTSSVFALHFTEPPISAQLLAFLRVFCMTEEELKEHLLGDSAIDRIFTLGNSEFPVSWDNEVKLWTFLEDRASLLLKTYKTTIEEDKSVLKNHDLSVRAKMAIKLRLGEKEILEKAVKSAAVNREYYRQQMEEKAPLPKYEESNLGLLESSVGDSRLPLVLRNLEEEAGVQDALNIREAISKAKATENGLVNGENSIPNGTRSENESLNQESKRAVEDAKGSSSDSTAGVKE [SETD3]”, for which the “solubility in G1/S (log2)” value in the data set on HeLa Kyoto [1] was -0.0122. Also, the melting temperature in the data set on HeLa Kyoto [2] (cell cycle stage: G1/S) was 52.8 °C; in the data set on HeLa Kyoto [2] (cell cycle stage: mitosis), 53.5 °C. The thermal stability score was 1.13 in the data set on HeLa Kyoto [3] (setting [5]) and 1.44 with HeLa Kyoto [3] (cell cycle stage: mitosis). For the same sequence, the “solubility change mitosis (log2)” value in the data set on HeLa Kyoto [4] was -0.0646.

On to “MGKRGSRSQSQLLNTLTKKQKKHLRDFGEEHPFYDRVSRKEAKPQICQLSESSDSSDSESDSESEPQQVSGYHRLLATLKNVSEEEEEDEEEEEEEDSIVDDAEMNDEDGGSDVSVEEEMAAESTESPENVALSADPEGKEDGEEPPGTSQTSPEEFTDAKHESLFSLETNFLEEESGDNSSLKASQDPFLQHVNKELKEKAIQAVATNPKTTHELKWPILGQLFFSSKFQKLETFKPPKDIDLKSLHLQKPLESTWTKTNSQFLSGPQKSSSPFTPLQKELFLIMNSYRDLFYPERTALKNGEEIRHVYCLHVINHILKANAQVLGNNSRRRSQKFGVGDDDDFRDQGLTRPKVLIVVPFREAALRVVQLFISLLEGDSKKKIIVSNKKRFQGEYGSDPEERPPNLKRPEDYEAVFVGNIDDHFRIGVAILQRSIRLYAPFYSSDILIASPLGLRTIIGGEGEKKRDFDFLSSIELLIIDQADIYLMQNWEHVLHLMNHMNLLPLDSHGVDFSRVRMWSLNNWSKYYRQTLLFGALQDAQINSVFNKYCVNMQGQVAVRNVPMTGSISHVLVQLPHVFQRMEAENLASVIDARFNFFVNKILPQYRDAVMSHTLIYIPSYFDFVRLRNYFKKEELNFTHICEYTQKSGVSRARHFFLQGEKQFLLFTERFHFYKRYTIKGIRNLIFYELPTYPHFYSEICNMLRATNRGEEATWTCTVLYSKYDAQRLAAVVGVERAAQMLQSNKNVHLFITGEK [DIEXF]”, for which, in the data set on HeLa Kyoto [1], the “solubility in G1/S (log2)” value was -0.69. The melting temperature in the data set on HeLa Kyoto [2] (cell cycle stage: G1/S) was 47.2 °C; with HeLa Kyoto [2] (cell cycle stage: mitosis), 49.3 °C. The thermal stability score in the data set with HeLa Kyoto [3] (setting [5]) came to 0.651; with HeLa Kyoto [3] (cell cycle stage: mitosis) it was 2.11. The “solubility change mitosis (log2)” value in the data set on HeLa Kyoto [4] turned out to be 0.17.

In the case of “MGKSRTKRFKRPQFSPTGDCQAEAAAAANGTGGEEDDGPAAELLEKLQHPSAEVRECACAGLARLVQQRPALPGLARRDAVRRLGPLLLDPSLAVRETAAGALRNLSACGGFEVCDDMVTKDIMTPLVALLKECSAGLDSNEMSLQEKKDQNRNSIENIANETVNVLWNICECSSRAVSIFNKEGCLEIVLKYLSRFPTNVDLAISVAYCLQTVTEDNPELLKSFSATALNMLESALLSPVSSMESLLLKTLVAGTIWNLKDIIPCKSQAEIINALLKILSEVLGMDAGEMVIQMKEAETQRLKTAAEAEEILENTNGDDLIEDDEMEGISHKRRVRRKTFVSDLLPPTDKELRETIALLTAQQTALEIIVNMCCNEDPSDDEWEELSSSDESDAFMENSFSECGGQLFSPLCLSHEVHTALTNYLIPKKIFEKTAFPNSIAVDLCSRNPTWKPLIRKMNTIQCRALFCLQSLVSLLDVEHLGGAAALQTLAQHLSQLLFSQPDFAKHVDFLEAISSALRALLQTMASKNISQCMTPDQLMTLCKAGIHSSNVGVRVNVVSILGITGSVLAKEDGTLETLKNIGCFLLEVTTKDPSLVVAGEALDALFDVFADGKEAERASIQIKLLSALKEFQPVFKMKIRKEGRGNYSTDQLCVLDNVKMNLRRFIAYQETVEKRLTS [HEATR3]”, in the data set on HeLa Kyoto [1], the “solubility in G1/S (log2)” value is 0.0745. In addition, the values for the melting temperature in the data set with HeLa Kyoto [2] (cell cycle stage: G1/S) and in the data set on HeLa Kyoto [2] (cell cycle stage: mitosis) were 48.7 °C and 48.8 °C, respectively. For the same sequence, the values for the thermal stability score in the data set with HeLa Kyoto [3] (setting [5]) and in the data set on HeLa Kyoto [3] (cell cycle stage: mitosis) were 1.72 and 3.45, respectively. Besides, the “solubility change mitosis (log2)” value in the data set with HeLa Kyoto [4] is -0.138.

With “MGKVRGLRARVHQAAVRPKGEAAPGPAPPAPEATPPPASAAGKDWAFINTNIFARTKIDPSALVQKLELDVRSVTSVRRGEAGSSARSVPSIRRGAEAKTVLPKKEKMKLRREQWLQKIEAIKLAEQKHREERRRRATVVVGDLHPLRDALPELLGLEAGSRRQARSRESNKPRPSELSRMSAAQRQQLLEEERTRFQELLASPAYRASPLVAIGQTLARQMQLEDGGQL [FAM207A]”, the “solubility in G1/S (log2)” value with HeLa Kyoto [1] was -0.11. The melting temperature is 48.3 °C in the data set with HeLa Kyoto [2] (cell cycle stage: G1/S) and 48.5 °C in the data set on HeLa Kyoto [2] (cell cycle stage: mitosis). In addition, the thermal stability score with HeLa Kyoto [3] (setting [5]) worked out at 0.13; in the data set with HeLa Kyoto [3] (cell cycle stage: mitosis) it was 0.618. The “solubility change mitosis (log2)” value in the data set with HeLa Kyoto [4] amounted to 0.342.

In the case of “MGLLRIMMPPKLQLLAVVAFAVAMLFLENQIQKLEESRSKLERAIARHEVREIEQRHTMDGPRQDATLDEEEDMVIIYNRVPKTASTSFTNIAYDLCAKNKYHVLHINTTKNNPVMSLQDQVRFVKNITSWKEMKPGFYHGHVSYLDFAKFGVKKKPIYINVIRDPIERLVSYYYFLRFGDDYRPGLRRRKQGDKKTFDECVAEGGSDCAPEKLWLQIPFFCGHSSECWNVGSRWAMDQAKYNLINEYFLVGVTEELEDFIMLLEAALPRFFRGATELYRTGKKSHLRKTTEKKLPTKQTIAKLQQSDIWKMENEFYEFALEQFQFIRAHAVREKDGDLYILAQNFFYEKIYPKSN [HS2ST1]”, in the data set on HeLa Kyoto [1], the “solubility in G1/S (log2)” value turned out to be 0.0386. The melting temperature in the data set with HeLa Kyoto [2] (cell cycle stage: G1/S) was found to be 55.1 °C; with HeLa Kyoto [2] (cell cycle stage: mitosis), 55.5 °C. Besides, the thermal stability score with HeLa Kyoto [3] (setting [5]) was -0.242; in the data set on HeLa Kyoto [3] (cell cycle stage: mitosis) it was 0.814. Also, the “solubility change mitosis (log2)” value in the data set on HeLa Kyoto [4] turned out to be 0.0318.
